Laboratory results taken from patent US20170349646A1 (PANASONIC INTELLECTUAL PROPERTY MANAGEMENT, published 2017).

Tests used:
[1] = biological target: recombinant nucleoprotein (NP) protein derived from influenza virus H1N1 to which a Flag tag was fus (influenza virus H1N1)
[2] = biological target: recombinant nucleoprotein derived from influenza virus subtype A H1N1 (Sino Biological, 11675-VO8H) (influenza virus subtype A H1N1)
Sequence of recombinant nucleoprotein derived from influenza virus subtype A H1N1 (Sino Biological, 11675-VO8H) (influenza virus subtype A H1N1) (P03466 whole entry): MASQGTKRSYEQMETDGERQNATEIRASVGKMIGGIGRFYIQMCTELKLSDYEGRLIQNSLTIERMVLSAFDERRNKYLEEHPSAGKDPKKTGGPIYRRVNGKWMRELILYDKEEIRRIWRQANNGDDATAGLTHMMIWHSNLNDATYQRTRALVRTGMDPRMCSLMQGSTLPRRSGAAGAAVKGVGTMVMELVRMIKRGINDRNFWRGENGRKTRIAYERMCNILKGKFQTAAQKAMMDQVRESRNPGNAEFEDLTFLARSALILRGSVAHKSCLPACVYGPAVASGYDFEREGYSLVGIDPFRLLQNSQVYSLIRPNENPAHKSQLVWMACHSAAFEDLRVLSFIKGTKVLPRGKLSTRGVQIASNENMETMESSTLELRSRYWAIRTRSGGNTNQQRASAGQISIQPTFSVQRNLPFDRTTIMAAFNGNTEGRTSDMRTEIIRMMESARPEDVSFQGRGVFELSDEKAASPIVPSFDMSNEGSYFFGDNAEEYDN

Sequence of recombinant nucleoprotein (NP) protein derived from influenza virus H1N1 to which a Flag tag was fus (influenza virus H1N1) (P03466 whole entry): as above

B1: VHH antibody consisting of the amino acid sequence represented by SEQ ID NO: 08 (VHH)
VHH: EVQLVESGGGLVQAGDSLRLSCAASGRTFINLDMGWFRQPPGKEREYVAAITRNGAITSYADSAKGRFTISRDNAKNTVSLEMNSLKPEDTGVYYCAAYSISNYGSGWYKPDYWGQGAQVTVSS
[1]
  Kd: 0.224 nM
[2]
  EC50 (read off the curve): ~8 ng/mL
